Broadly, the Kd is the constant that tells how readily two partners part at equilibrium.

Numbering of substitutions follows the chain as printed. Names may count otherwise.

B1: canine IgGB (65) mAb with mutation Y436F (antibody, part only; not given: Variable domains, not shown: another chain or arm of the molecule)
constant: ASTTAPSVFPLAPSCGSTSGSTVALACLVSGYFPEPVTVSWNSGSLTSGVHTFPSVLQSSGLYSLSSMVTVPSSRWPSETFTCNVAHPASKTKVDKPVPKRENGRVPRPPDCPKCPAPEMLGGPSVFIFPPKPKDTLLIARTPEVTCVVVDLDPEDPEVQISWFVDGKQMQTAKTQPREEQFNGTYRVVSVLPIGHQDWLKGKQFTCKVNNKALPSPIERTISKARGQAHQPSVYVLPPSREELSKNTVSLTCLIKDFFPPDIDVEWQSNGQQEPESKYRTTPPQLDEDGSYFLYSKLSVDKSRWQRGDTFICAVMHEALHNHFTQESLSHSPGK
B2: canine IgGB (65) mAb with mutation T286M (antibody, part only; not given: variable domains of unnamed mAb, not shown: another chain or arm of the molecule)
constant: B1 constant with T172M, F324Y
B3: canine IgGB (65) mAb with mutation Y436G (antibody, part only; not given: Variable domains, not shown: another chain or arm of the molecule)
constant: B1 constant with F324G
B4: canine IgGB (65) mAb with mutation Y436R (antibody, part only; not given: Variable domains, not shown: another chain or arm of the molecule)
constant: B1 constant with F324R
B5: canine IgGB (65) mAb with mutation Y436S (antibody, part only; not given: variable domains of unnamed mAb, not shown: another chain or arm of the molecule)
constant: B1 constant with F324S
B6: canine IgGB (65) mAb with mutation Y436T (antibody, part only; not given: Variable domains, not shown: another chain or arm of the molecule)
constant: B1 constant with F324T
B7: canine IgGB (65) mAb with mutation Y436P (antibody, part only; not given: variable domains of unnamed mAb, not shown: another chain or arm of the molecule)
constant: B1 constant with F324P
B8: canine IgGB (65) mAb with mutation T286K (antibody, part only; not given: Variable domains, not shown: another chain or arm of the molecule)
constant: B1 constant with T172K, F324Y
B9: canine IgGB (65) mAb with mutation Y436I (antibody, part only; not given: variable domains of unnamed mAb, not shown: another chain or arm of the molecule)
constant: B1 constant with F324I
B10: canine IgGB (65) mAb with mutation Y436Q (antibody, part only; not given: Variable domains, not shown: another chain or arm of the molecule)
constant: B1 constant with F324Q
B11: canine IgGB (65) mAb with mutation Y436W (antibody, part only; not given: variable domains of unnamed mAb, not shown: another chain or arm of the molecule)
constant: B1 constant with F324W
B12: canine IgGB (65) mAb with mutation Y436K (antibody, part only; not given: variable domains of unnamed mAb, not shown: another chain or arm of the molecule)
constant: B1 constant with F324K
B13: canine IgGB (65) mAb with mutation Y436M (antibody, part only; not given: Variable domains, not shown: another chain or arm of the molecule)
constant: B1 constant with F324M
B14: canine IgGB (65) mAb with mutation Y436L (antibody, part only; not given: variable domains of unnamed mAb, not shown: another chain or arm of the molecule)
constant: B1 constant with F324L
B15: canine IgGB (65) mAb with mutation Y436V (antibody, part only; not given: variable domains of unnamed mAb, not shown: another chain or arm of the molecule)
constant: B1 constant with F324V
B16: canine IgGB (65) mAb with mutation Y436N (antibody, part only; not given: variable domains of unnamed mAb, not shown: another chain or arm of the molecule)
constant: B1 constant with F324N

The assay deals with canine FcRn complex (FcRn-alpha subunit and beta-microglobulin), His-tagged, biotin labeled (canine). The assay is described as follows: SPR (Biacore), biotin-FcRn captured on SA surface, IgG flowed over, pH 6, 15 C. (In general: In SPR one partner is held on a chip, and binding of the other changes the refractive index at the surface.)
Molecule B1 came in with a Kd of 9.8 nM.

In the case of B2, the Kd came out at 5.23 nM.

As for B3, the equilibrium dissociation constant (Kd) was 9.67 nM.

B4 had a Kd of 3.83 nM. Against the preceding molecule, the Kd is about 2.5-fold lower.

For B5, the Kd turned out to be 5.97 nM. Compared with the last molecule, the Kd is about 1.6-fold higher.

In the case of B6, the Kd turned out to be 8.65 nM. This Kd and that of the molecule before are within 1.5-fold of each other.

B7 had a Kd of 668 nM.

B8: the Kd amounted to 7.04 nM.

The molecule B9 yielded a Kd of 8.41 nM.

B10 came in with a Kd of 4.74 nM.

B11 yielded a dissociation constant (Kd) of 3.87 nM.

B12: the equilibrium dissociation constant (Kd) was found to be 6.88 nM.

The molecule B13 gave a Kd of 9.51 nM.

As for B14, the equilibrium dissociation constant (Kd) worked out at 4.26 nM.

In the case of B15, the Kd stood at 5.56 nM. The Kd values of the last two molecules are within 1.5-fold of each other.

B16: the Kd came out at 7.27 nM.

For the origin of these results see patent publication US20260139055A1.
